Assay results as given in the nanobody polyreactivity screen of Harvey et al. (2022).

Experiment: yeast display, Sf9 membrane polyspecificity reagent, FACS + sequencing; frameworks hold sequencing errors
Method in brief: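 Genes from sorted yeast were amplified by colony PCR, read by MiSeq 2 × 250 sequencing and filtered on CDR length. These cells carried a synthetic nanobody library in Saccharomyces cerevisiae BJ5465 and were sorted by FACS into low and high (top ~1%) gates on anti-HA and streptavidin fluorescence. Polyreactivity is labelled according to the gate of origin.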

| Sequence | polyreactivity (PSR sort gate) |
| --- | --- |
| QVQLVESGGGLVQAGGSLRLSCAASGSIFEENAMGWYRQAPGKERELVAAITIGGRTNYADSVYGRFTISRDNAKNTVYLQMNSLKPEDTAVYYCAADLSSNKYWRFWTRYYYWGQGTQVTVSS | low polyreactivity |
| QVQLVESGGGLVQAGGSLRLSCAASGGTFYYYAMGWYRQAPGKERELVAAITRSGGNTYYADSVKGRFTISRDNAKNTVYLQMNSLKPEDTAVYYCAAPFVKFVGSLVYAGYDSWGQGTQVTVSS | low polyreactivity |
| QVQLVESGGGLVQAGGSLRLSCAASGRIFWVYAMGWYRQAPGKERELVAAISLSGGLTYYADSVKGRFTITRDNAKNTVYLQMNSLKPEDTAVYYCNAVYPKRGGGRIVDYWGEGTQVTVSS | high polyreactivity |
| QVQHVESGGGLVQAGGSLRLSCAASGFTFRHNAMGWYRQAPGKERELVAAMTKSGRRTYDADSVKGRFTISRDNAKNTVYLQMNSLKPEDTAVYYCKKDLRQSYANVDYWGQGTQVTVSS | high polyreactivity |
| QVQLVESGGGLVQAGGSLRLSCAASGFIFRVNAMGWSRQEPGKERELVAAISASGGTTYYADSVKGRFTISRDNAKNTVYLQMNSQKPEDTAVYYCIAPSRTRYDFWGQGTQVTVSW | low polyreactivity |
| QVQLVESGGGLVQAGGSLRLSCAASGSTFCHYAMGWYRQAPGKERELVAAISWSGGSTSYADSVKGRFTISRDNAKNTVFLQMNSLIPEDTAVYYCNKRQEWFHFPYTRGYYWGQGTQVSVSS | low polyreactivity |
| QVQLVESRGGLVQAGGSLRLSCAASGRIFVVYTMGWYRQAPGKERELVAAISWRGGTTYYADSVKRRFTISRDNAKTTVYLQMTSLIPEDTAVSYCATREWSPRGSYDYSGQGTQVTVSS | high polyreactivity |
| QVQLVESGGGLVQAGGSLRLSCAASALTFGSNAMGWYRQAPGKERELVAAISRSGGTTYYADSVKGRFTISRDNAKNTVYLQMNSLKPEDTAVYYCATRPYSPWRHYYWGQGTQVTVSS | high polyreactivity |
| QVQLVESGGGLVQAGGSLRLSCAASGFIFNKNAMGWYRQAPGKERELVAAITFGGGTTYYADSVKGRFTISRDNAKNTVYLQMNSLKPEDTAVYYCNAVYYWYKGDYWGQGTQVTVSS | high polyreactivity |
| QVQHVESVGGLVQAGGSLRLICAASGGTIDTYAIGWYRQAPGKERELVAGIDWSGGSTYYADSVKGRFTISRDNSKNTVYLQMNSLKPEDTAVYYCAADYYYPSQMDYWGQGTQVTVSS | low polyreactivity |
| QVQLVESGGGLVQAGGSLRLSCDASGRIFDANVMGWYRQAPGKERELVAAISSGGRTKYADSVKGRFTISRDNAKNTVYLQMNSLKPEDTAVYYCNADYRNDWGTPLWYAYNYWGQGTQVTVSS | low polyreactivity |
| QVQLVESGGGLVQAGGSLRLSCAASGFTFSKYAMGWYRQAPGKEREFVAAISSRGGRTYYADSVKGRFTISRDNAKNTVYLQMNSLKPEDTAVYYCAVDVHLVTEYDYWGQGTQVTVSS | high polyreactivity |
| QVQLVESGGGLVQAGGSLRLSCAASGSTFSRYAMGWYRHAPGKERELVAAISSSGGGTYYADSVKGRFTISRDTAKNTVFFQMNSLKPEDTAVYYCAKSYRRRQGYYYWGQGTQVTVSS | high polyreactivity |
| QVQLVESGGGLGQAGGSLRLSCAASGSLITQNALGWYRLAPGKEWELVADISRGSTYSADSVKGRFTISRDNAKNTVYLQLTSLKPEDTALYYSAADDIAHPSFVSTVDVGMDYWGQGPQVTVSS | low polyreactivity |
| QVQLVESGGGLVQAGGSLRLSCAASGGIFYRYAMGWYRQAPGKERELVAAITSSGGSTYYADSVKGRFTISRDNAKNTVYLQMNSLKPEDTAVYYCAADYGYYGAGSYFDRGDYWGQGTQVTVSS | high polyreactivity |
| QVQLVESGGGLVQAGGSLRLSCAASGRIFVFNAMGWYRQAPGKEREFVAVISTGGGSTYYADSVKGRFTISRDNAKNTVYLQMNSLKPEDTAVYYCAAEWRVYYATYGYWGQGTQVTVSS | high polyreactivity |
| QVQLVESGGGLVQAGGSLRLSCAASGYTFKYNAMGWYRQAPGKERELVAAISSRGDRTYYADSVKGRFTISRDNAKNTVYLQMNSLKPEDTVVYYCNKVARPRSRNDSWGQGTQVTVSS | high polyreactivity |
| QVQLVESGGGLVQAGGSLRLSCAASGRTFYRYAMGWYRQAPGKERELVAAITTSGGSTYYADSVKGRFTISRDNAKNTVYLQMNSLKPEDTSVYYCSATYYGYHIRDDYWGQGTQVTVSS | low polyreactivity |
| QVQLVESGGGLVQAGGSLRLSCAPSGYIFDIYAMVWYRQAPGKERELVAGITRNGGSTYYADSVKGRFTISRDNAKNTVYLQMNSLKPEDTAVYYCAAGWITRSLYHKYYSWGQGTQVTVSS | high polyreactivity |
| QVQLVESGGGLVQAGGSLRLSCAASGSIFDYYAMGWYRQAPGKERELVAAISNGRTTNYADSVKGRFTISRDNAKNTVYLQMNSLKPEDTAVYYCNADSALYDKAVIYSEYDYWGQGTQVTVSS | low polyreactivity |
| QDQLVESGGGLVQAGGSLRLSCAASGRTFDSYAMGWYRQAPGKERELVAAIDADSVKGRFTISRDNAKNTVYLQMNSLKPEVTAVYYCAKPSRWGWTGFYAYEYWGQGTQVTVSS | low polyreactivity |
